Assay results from patent US20070179094A1 (Bayer, published 2007).

Target: Rabbit anti-human MDL-1 polyclonal antibodies
Assay: cell-based or functional assay

B1: human MDL-1 extracellular domain protein expressed in baculovirus (receptor)
chain: PQIFNKSNDGFTTTRSYGTVSQIFGSSSPSPNGFITTRSYGTVCPKDWEFYQARCFFLSTSESSWNESRDFCKGKGSTLAIVNTPEKLKFLQDITDAEKYFIGLIYHREEKRWRWINNSVFNGNVTNQNQNFNCATIGLTKTFDAASCDISYRRICEKNAK
IC50 for inhibition of α-hMDL-1 pAb-induced β-galactosidase reporter signaling in the CD3zH912Z1 line: 0.1 nM
